Test system: E. coli RARE strain
Test: CAR-TTA coupled production in aerobically growing E. coli RARE
Assay type: cell-based, Escherichia coli
Settings: coupled to NiCAR, 2 mM acid, HPLC after 20 h
Description: For the CAR-TTA coupled assay, the strains transformed with a plasmid expressing a TTA and a second plasmid expressing a CAR were grown under identical conditions with the addition of 34 μg/mL chloramphenicol (Cm) to maintain the additional plasmid. Further, 0.2 nM aTc and 1 mM IPTG were added to induce protein expression and 2 mM aldehyde, or acid was added at the time of induction. Following induction, the cultures were grown for 20 h at 30° C. while shaking at 1000 RPM with product concentrations measured via supernatant sampling and submission to HPLC.
Finally, to partially address the toxicity of supplemented aldehydes in fermentative contexts, we investigated whether we could couple a TTA to a carboxylic acid reductase (CAR) to create a steady and low-level supply of aldehydes biosynthesized from carboxylic acid precursors. […]
With the promise of the CAR-TTA coupling, we wanted to investigate the generalizability of this pathway to produce a β-OH-nsAA that has a bio-orthogonal conjugation handle. […] Finally, given the potential to produce novel peptide or protein products in cells, we wanted to confirm the activity of this cascade in growing cells, which was successful for all CAR-TTA pairings with MavCAR producing the highest titer determined by product peak area after 20 h (FIG. 20d). […]

B1: PbTTA: L-threonine transaldolase, SEQ ID NO: 16, Parachlamydiales bacterium, MBN2478762.1 (protein, listed as Parachlamydiales bacterium)
chain: METSLKDFETILHLINKEEIDSNDTIHMTANENIMSKLSKHYLKSTLSYRYHVGMFDDQKNLTVSRSCLIKNSLMLRCLSPIFLLEQQAREYVKKMFFAEYADFRPLSGMHTVFCILSTLTKPNDRVYVFTTESVGHAATVSLLKSLGRKVSFIPFCEKKLDIDLEKLSKQILIEKPNAILFDFGTPFYPLPIREIREIVGNDVKMIYDASHVLGLIAGGQFQNPLLEGCDVLIGNTHKTFPGPQKGMILYKNKSLGKEIATEIFKSAISAQHTHHAIALYVTIIEMYIHGKEYANQIIKNNHALSQALINEGFKIFKRKNQFSLSHMIAITGDFPIDHHVACADLHNSNISTNSRILYDFPAVRIGVQEVTRKGMKEKDMVQLAKFFKEIILDRKNISSKIKEFNNKFNSIEYSLDEIYEKLF
β-OH-nsAA production from 4-formyl benzoic acid: observed a peak corresponding to the β-OH-nsAA
